Legend:
recombinant human TfR-1 = recombinant human TfR-1 (human, UniProt P02786 89-760); experiment: ELISA
[1] = target: T1, recombinant cynomolgus TfR-1 (cynomolgus, UniProt H9EXL1 89-760); experiment: ELISA
T1 chain: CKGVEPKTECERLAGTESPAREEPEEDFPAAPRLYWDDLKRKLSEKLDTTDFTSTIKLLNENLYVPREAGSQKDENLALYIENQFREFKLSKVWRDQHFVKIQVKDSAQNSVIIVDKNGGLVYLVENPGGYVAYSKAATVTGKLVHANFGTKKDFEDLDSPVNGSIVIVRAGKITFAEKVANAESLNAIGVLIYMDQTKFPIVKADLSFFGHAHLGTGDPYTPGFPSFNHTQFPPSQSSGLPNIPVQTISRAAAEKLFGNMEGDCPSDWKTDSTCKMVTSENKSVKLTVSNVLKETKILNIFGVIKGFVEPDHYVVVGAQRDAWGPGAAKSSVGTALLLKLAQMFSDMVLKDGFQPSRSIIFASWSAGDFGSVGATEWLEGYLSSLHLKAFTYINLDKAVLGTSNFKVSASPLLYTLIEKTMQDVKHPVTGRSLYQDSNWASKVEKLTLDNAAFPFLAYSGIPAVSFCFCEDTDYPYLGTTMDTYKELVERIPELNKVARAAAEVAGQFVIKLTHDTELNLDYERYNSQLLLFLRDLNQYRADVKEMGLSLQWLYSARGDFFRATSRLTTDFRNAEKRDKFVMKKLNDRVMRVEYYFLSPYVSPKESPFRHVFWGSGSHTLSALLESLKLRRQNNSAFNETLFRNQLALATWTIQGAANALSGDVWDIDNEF

EC50 (recombinant human TfR-1): 4.1 nM
EC50 [1]: 3 nM
B1: R2D4 (Fc fusion)
chain: ARVDQTPQTATKETGESLTINCVLRDSNCALSSTYWYRKKSGSTNEENISKGGRKYVETVESGSKSFSLKINDLTVEDSGTYRCNVVGTWCMSWRDVSGDGTVVTVNA

From patent publication US20250122298A1 (published 2025)
